We go through one molecule from patent US20250127877A1 (University of Washington, published 2025).

The target in the test is TH-A/New Caledonia/20/1999_2GCN_dn5b (203L/210D/212V/216I) (influenza A virus A/New …). As to the kind of experiment: in vitro nanoparticle assembly, purified nanoparticles seen by cryo-EM.

B1: I53_dn5A.1 (other)
chain: MGKYDGSKLRIGILHARGNAEIILALVLGALKRLQEFGVKRENIIIETVPGSFELPYGSKLFVEKQKRLGKPLDAIIPIGVLIRGSTPHFDYIADSTTHQLMKLNFELGIPVIFGVITADTDEQAEARAGLIEGKMHNHGEDWGAAAVEMATKFN
Consider B1, for which the binding result is “binds”.
